Data as given in the supplement of paper PMC10724198.
± gives the standard deviation of the averaged measurements.

System: Saccharomyces cerevisiae
Experiment: protein stability index of tFT-peptide fusion (C-terminal peptide) (PSI (0-1 scale)); higher = more stable (slower turnover)
Conditions: genetic background: wild type; temperature: 30 C
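Note: PSI is a weighted mean of sequencing reads over stability bins, variants kept only with over 10 reads, mCherry proximal and sfGFP distal, peptide attached via GGGS linker.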

Row | Sequence | protein stability index
1 | QSWVNIGCRGAW | 0.72 ± 0.012
2 | WWWGGVRGGMGG | 0.749 ± 0.026
3 | GAREHGSNDYGP | 0.635 ± 0.036
4 | PPRSPPSLPFPP | 0.634 ± 0.0066
5 | AVPITRLPSPSP | 0.6668 ± 0.0047
6 | RGFGSGTVGVQS | 0.616 ± 0.034
7 | LSGSTQLLYFFQ | 0.6651 ± 0.0028
8 | ITTLGSVSRDSR | 0.722 ± 0.062
9 | DGQSAKEPVGFR | 0.681 ± 0.037
10 | FYPHFCAHTRPH | 0.7265 ± 0.0054
11 | AFHTLSGFRRVP | 0.673 ± 0.019
12 | LLVNLNINYFKR | 0.689 ± 0.018
13 | RFAFLPPPPLPP | 0.636 ± 0.011
14 | APIRPPVPPASP | 0.716 ± 0.035
15 | LCVGVGAAIRLW | 0.598 ± 0.039
16 | RERGVSVKLGGG | 0.677 ± 0.026
17 | RHTFMCQRRVGL | 0.78 ± 0.084
18 | RYFPNRGSGLTY | 0.786 ± 0.037
19 | KHEKGEKNKIEK | 0.664 ± 0.055
20 | LLCIPFPTRSLI | 0.803 ± 0.28
21 | PPAALPRSTPPP | 0.704 ± 0.063
22 | RVSAPPSFHGSF | 0.722 ± 0.014
23 | SLRPPLRPPTVV | 0.601 ± 0.017
24 | GLVRGRLVGLED | 0.646 ± 0.056
25 | LLHFSSPPLLPV | 0.634 ± 0.055
26 | GKRRKKDGNKKR | 0.621 ± 0.066

Row | Sequence | protein stability index
27 | GSSKVKEGNACR | 0.694 ± 0.057
28 | RSPPPPPGPRFP | 0.698 ± 0.019
29 | ALMHVTLAVGLL | 0.579 ± 0.0027
30 | GRVGRGGAVGEW | 0.671 ± 0.022
31 | CPPRIVRPRGVK | 0.6775 ± 0.0019
32 | GSSRRMGEGVEM | 0.69 ± 0.02
33 | LLSRCAGLMWSF | 0.679 ± 0.0098
34 | PPPPRPPPLPTR | 0.703 ± 0.021
35 | VPGASSSLSSSP | 0.667 ± 0.077
36 | AGASCGGRPDTA | 0.607 ± 0.02
37 | PLPPPLPPTLPL | 0.72 ± 0.018
38 | TWIGRLGAGLPF | 0.779 ± 0.074
39 | WVGGVACGAGGG | 0.62 ± 0.069
40 | VRPQHIITSGSC | 0.739 ± 0.15
41 | PPSPPSPPPSAP | 0.704 ± 0.0093
42 | GGSESRGSDRWE | 0.633 ± 0.038
43 | TLTSPFGSPTWD | 0.638 ± 0.31
44 | RPLWVDGPHPSR | 0.666 ± 0.1
45 | LMCGPARSPLTT | 0.6701 ± 0.00098
46 | IGVNEDSAIVCM | 0.562 ± 0.024
47 | SPPPTSHPSAPP | 0.638 ± 0.056
48 | STAFRDSAMRDP | 0.664 ± 0.051
49 | SFFFFSPFSRLS | 0.693 ± 0.032
50 | VCCMFTAFGVCG | 0.604 ± 0.022
51 | AVRGCGVGSGWR | 0.713 ± 0.02
52 | KFNFVRMSSLRL | 0.692 ± 0.16

Row | Sequence | protein stability index
53 | SKKRHSKNRKSV | 0.71 ± 0.032
54 | EMRAGNWWGREG | 0.728 ± 0.054
55 | LPLHHYAHKFDL | 0.746 ± 0.1
56 | RCGLSGGRPPVL | 0.6475 ± 0.0016
57 | PLAPLPMSPHLA | 0.572 ± 0.016
58 | AARRVARTTSFC | 0.6728 ± 0.0019
59 | ASIRLSPSWVQR | 0.652 ± 0.0081
60 | EACVAAMTPKSL | 0.657 ± 0.0083
61 | HTPTFPTSPPPP | 0.68 ± 0.016
62 | GGGGWGGAGLVG | 0.704 ± 0.014
63 | SPRPTRPALLPP | 0.708 ± 0.033
64 | FVLPLAPAGIAS | 0.5817 ± 0.0038
65 | DNVVLVRQAAFI | 0.618 ± 0.066
66 | PLFPPPPLRSWP | 0.766 ± 0.089
67 | FFVRGCLCLSDR | 0.693 ± 0.024
68 | TCFWFTCSDPFF | 0.773 ± 0.096
69 | GGAPMRPGGGTC | 0.678 ± 0.065
70 | CLGSVFYCCWNF | 0.648 ± 0.025
71 | FSGLELRVGCGA | 0.732 ± 0.086
72 | WWGRWPGLAGGR | 0.716 ± 0.068
73 | LRLECESIKRYT | 0.61 ± 0.055
74 | KLNVRATPPPTI | 0.7 ± 0.055
75 | HPPLPRPPPPPP | 0.645 ± 0.057
76 | RQFLSLLPCSLP | 0.771 ± 0.094
77 | PGGCQDPWAALC | 0.714 ± 0.077
78 | PWCTPVKRGTSM | 0.763 ± 0.056

Row | Sequence | protein stability index
79 | TTRPTRGRPSSG | 0.682 ± 0.058
80 | ECIKVRGQWREI | 0.662 ± 0.011
81 | LVDAGGSTRGKP | 0.643 ± 0.0069
82 | SRWTFSFYRNLD | 0.683 ± 0.053
83 | HLPPLPRPPSLT | 0.7049 ± 0.0069
84 | WGAAGRAGTERH | 0.682 ± 0.029
85 | ASTCLKFTPTIF | 0.883 ± 0.1
86 | SRVRSPPWTRKF | 0.739 ± 0.1
87 | LPAPPAPLTFPG | 0.687 ± 0.021
88 | GPRSLVEITITD | 0.669 ± 0.029
89 | HVKVGCGNGIVR | 0.644 ± 0.014
90 | RKNQNAWMPALQ | 0.702 ± 0.1
91 | PPTFPPHSYLHP | 0.652 ± 0.043
92 | TSIDVLKCVYIQ | 0.5549 ± 0.0054
93 | TTDKNEAHVYSR | 0.6931 ± 0.00098
94 | KPLPSHYPGRTP | 0.658 ± 0.016
95 | PPAPGPPHPPAL | 0.651 ± 0.013
96 | LCLGFDGAFPLF | 0.725 ± 0.014
97 | PSPALPVHPPLQ | 0.687 ± 0.011
98 | RKSIGTAYRMPR | 0.755 ± 0.081
99 | RGTDSRERIKRR | 0.721 ± 0.06
100 | AVGQAGITSLVL | 0.699 ± 0.029
101 | FPRSSGRTVNCV | 0.648 ± 0.0084
102 | LIPFAFVHPVFL | 0.62 ± 0.048
103 | VGRSRNGAQSNR | 0.65 ± 0.015
104 | ARSERVVPKMQS | 0.732 ± 0.043

Row | Sequence | protein stability index
105 | WTSPRISPRSPL | 0.726 ± 0.014
106 | VKIYPSHGKVRD | 0.6901 ± 0.00096
107 | ALFTVGNRPSSL | 0.701 ± 0.021
108 | PFSPPPGPPPPP | 0.6806 ± 0.0034
109 | PPCTVHPLPRLP | 0.727 ± 0.02
110 | FLTSPFIITRMP | 0.593 ± 0.071
111 | KGKRKETKKTKG | 0.667 ± 0.017
112 | RVGRNLRVGGES | 0.69 ± 0.008
113 | SLSFSLPLFSLG | 0.681 ± 0.013
114 | YDGGLAALQVLL | 0.68 ± 0.051
115 | FWSRGANGGVLV | 0.6775 ± 0.0037
116 | AFRCGGVPGDFA | 0.664 ± 0.022
117 | MAARGTEQGTMP | 0.71 ± 0.061
118 | GVEFKVVSFVVD | 0.646 ± 0.094
119 | FRMNEVSWDVVS | 0.675 ± 0.032
120 | SGVSCPGRVDGG | 0.68 ± 0.0085
121 | MGFRSVRGWVSL | 0.699 ± 0.093
122 | PPAPPPPPLPSY | 0.714 ± 0.052
123 | PPRPPLSPPRSA | 0.718 ± 0.014
124 | PNLKLSPKWAKP | 0.67 ± 0.063
125 | RITYIANNVMLF | 0.652 ± 0.028
126 | RGGGGRGWGSRG | 0.67 ± 0.027
127 | AQTHGGSSLPRP | 0.688 ± 0.028
128 | GVSCGWVAHARW | 0.694 ± 0.061
129 | FMRGQCWLRGCE | 0.672 ± 0.016
130 | EQICNCKIIMVE | 0.5669 ± 0.003

Row | Sequence | protein stability index
131 | LMAGPRLCSPLR | 0.634 ± 0.033
132 | PPLPSSPPSSPL | 0.68 ± 0.013
133 | EKQKIIRSGCES | 0.746 ± 0.16
134 | LLRLMSPTPFTP | 0.703 ± 0.037
135 | ISCVSFCCLFDL | 0.601 ± 0.0022
136 | PPPSPPRPLLPV | 0.701 ± 0.023
137 | PPPAPPVRPDRS | 0.686 ± 0.048
138 | LSGVYPQACSRL | 0.734 ± 0.014
139 | LLLLFWSGSCGC | 0.648 ± 0.013
140 | APLFLPPPSLFF | 0.6934 ± 0.0052
141 | GCRGGLREAGVW | 0.768 ± 0.024
142 | WGTSGAMRGTEG | 0.683 ± 0.022
143 | SSPPPLPPSPPP | 0.673 ± 0.019
144 | GLCGGFGGLRGL | 0.743 ± 0.031
145 | KLILGGSRGIMD | 0.646 ± 0.014
146 | GSRSPEARARFV | 0.68748 ± 0.00064
147 | GTNARGGPINIG | 0.675 ± 0.0065
148 | YSLQSCGFLANE | 0.642 ± 0.03
149 | LLGDPGDFFPAS | 0.713 ± 0.028
150 | TFNRIFGNALPG | 0.688 ± 0.044
151 | PPLRPPPPLPVP | 0.663 ± 0.054
152 | PHPPPERSTNLC | 0.694 ± 0.036
153 | DKRPTLYSLSLS | 0.621 ± 0.032
154 | PRIGEARNLCYK | 0.6816 ± 0.006
155 | INGICDPQANSR | 0.71 ± 0.027
156 | VGVSEVGRGWAT | 0.71 ± 0.062

Row | Sequence | protein stability index
157 | TGAPSKQYDRFL | 0.747 ± 0.045
158 | ERTKKKRRKEKH | 0.663 ± 0.011
159 | GVVGLEVLGRWG | 0.687 ± 0.047
160 | LLLSPAFFSCFL | 0.638 ± 0.095
161 | RHAFGSSHVRFF | 0.679 ± 0.024
162 | WVPPPPYSPFSL | 0.695 ± 0.027
163 | CTRGVVSPKLFV | 0.786 ± 0.17
164 | RLRPVLSPHAPI | 0.648 ± 0.033
165 | GGWGGKLVGRMG | 0.708 ± 0.0083
166 | VLLRKLLCPGYV | 0.598 ± 0.016
167 | YHALNSLHPPSP | 0.69 ± 0.027
168 | TSRGGFCLGGVF | 0.729 ± 0.018
169 | APGPCSAPSCGA | 0.67 ± 0.013
170 | KELPAGRQSEPD | 0.636 ± 0.034
171 | PLVPPESPRSQV | 0.6564 ± 0.0034
172 | PLVPLAFWSPLV | 0.686 ± 0.035
173 | TCVLPDLNTRWS | 0.685 ± 0.02
174 | SPATDRTSLFES | 0.729 ± 0.022
175 | WHEHGGVGTYFI | 0.6743 ± 0.0043
176 | SAPLRHTSSSPS | 0.697 ± 0.043
177 | LDGSQDGANRRT | 0.728 ± 0.095
178 | GGGGGGVDWFEI | 0.71359 ± 2.1e-05
179 | VGSAENQHTGRM | 0.678 ± 0.018
180 | VADTLVCRGPMA | 0.718 ± 0.023
181 | DETIAALYTMTD | 0.615 ± 0.014
182 | MWVCGFVGGGGG | 0.654 ± 0.035

Row | Sequence | protein stability index
183 | MRRSSKPRLSLT | 0.725 ± 0.049
184 | INKATYTQIYKN | 0.667 ± 0.021
185 | YQDDGRRPGFVI | 0.675 ± 0.013
186 | SFTSGFTDAGNI | 0.6008 ± 0.0047
187 | SLRLMTFPPLLL | 0.68 ± 0.08
188 | TFPATSLPSFSL | 0.6861 ± 0.0031
189 | TGYDERSRFIEI | 0.68 ± 0.1
190 | LCSPGPLPPSYF | 0.705 ± 0.045
191 | EGLCFLICKERS | 0.729 ± 0.025
192 | SLALPLLPPSSP | 0.739 ± 0.05
193 | PPPLPALRPPSH | 0.7193 ± 0.0013
194 | YPHPPRPSNQLF | 0.615 ± 0.0079
195 | LPFFFPRLFSPP | 0.691 ± 0.061
196 | RRRSLLLTYSYV | 0.541 ± 0.055
197 | GVDVSCVSPFGG | 0.705 ± 0.03
198 | LARGGASIGGES | 0.701 ± 0.015
199 | EKKEKKETTDTE | 0.693 ± 0.023
200 | FLGECSLLSGFL | 0.694 ± 0.033
201 | IIDCQVSFSFLI | 0.588 ± 0.063
202 | STVKVVIIHFKI | 0.48 ± 0.036
